Data: PMC11414720

Target: TMED2 (overexpressed) (UniProt Q15363)
Experiment: SEC; gel filtration of overexpressed protein in octyl-β-glucoside, a harsher detergent

Sequence of TMED2 (overexpressed), Q15363 21-201 (receptor; other documents disagree on this pair) (Q15363 21-201): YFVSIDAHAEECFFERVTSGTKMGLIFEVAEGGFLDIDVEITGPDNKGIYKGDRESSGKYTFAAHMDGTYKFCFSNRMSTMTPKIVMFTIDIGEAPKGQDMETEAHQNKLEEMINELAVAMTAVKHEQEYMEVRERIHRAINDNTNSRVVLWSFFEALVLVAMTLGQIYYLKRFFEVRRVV

- stoichiometry N: 2
Substance: TMED2 (overexpressed), Q15363 21-201 (receptor; other documents disagree on this pair)
